Legend:
His-HER3 = target: T1, His-HER3 (Homo sapiens, UniProt P21860); assay: Binding kinetics by Biacore (SPR); conditions: antibody as ligand, analyte His-HER3, Biacore T200
T1 construct: His
Experimental: Affinity assay by surface plasmon resonance (SPR): antibody kinetics and affinity were determined using Biacore T200. Briefly, the recombinant human HER3 antibody was immobilized on a protein A chip (GE, Cat. 29-1275-5). The antigen concentration, from 50 nM to a final concentration of 0.78125 nM, was generated by 2-fold serial dilution, and affinity and kinetics were determined through the chip.
The binding affinity of humanized 3F8 (hu3F8) and chimeric 3F8. Binding kinetics of 3 humanized 3F8 clones and chimeric 3F8 were determined by Biacore. Three humanized 3F8 clones (clone 1, clone 2 and clone 3) had different heavy chains and one identical light chain. Clone 1, clone 2, and clone 3 corresponded to hu3F8-1, hu3F8-2, and hu3F8-3, respectively.
All data listed in Table 6 were processed using Biacore T200 evaluation software version 3.1.

HER3 [1] = target: T2, HER3 (Homo sapiens, UniProt P21860); assay: ELISA binding affinity after incubation at 40° C. (heat stress); conditions: day 0
T2 construct: human Fc (huFc)
Experimental: ELISA assay: human HER2-ex-huFc, human HER3-huFc, and human EGFR-his were diluted to 2 μg/mL and 50 μL/well in a 96-well plate and incubated at 4° C. overnight. The plate was washed with 0.5×PBST, then incubated with 100 μL of a blocking buffer (PBS+3% BSA) at 37° C. for 2 h, and washed with 0.5×PBST. The 3F8 antibody was diluted with the blocking buffer in a 1:3 serial gradient, added at 50 μL/well, incubated at 37° C. for 40-50 min, and then washed with 0.5×PBST. Goat anti-mouse IgG-HRP (Southern Biotech, 1030-05) was diluted at 1:20000 with the blocking buffer, added at 50 μL/well, incubated in the dark for 30 min, and then washed with 0.5×PBST. […]
Antibody stability test: the purified antibody at 5 mg/mL was stored at 4° C. as regular practice, incubated at 40° C. for 7 days and 14 days for heat stability evaluation, transferred to a glycine solution at pH 3.5 for regeneration, and stored for 2, 4 and 6 h for acid stability evaluation, or subjected to repeated freeze-thaw treatments for 4 or 6 cycles for freeze-thaw stability evaluation. Aggregation was measured by SEC-HPLC, and binding affinity was determined by ELISA. […]
EC50 assay of the three clones of hu3F8 incubated at 40° C. for different times. The three humanized 3F8 antibody clones were incubated in normal saline at 40° C. for 7 or 14 days, and the binding affinities after heat stress test were determined by ELISA. […]

HER3 [2] = target: T2, HER3; assay: ELISA binding affinity after repeated freeze-thaw; conditions: 0 freeze-thaw cycles
Experimental: ELISA assay: human HER2-ex-huFc, human HER3-huFc, and human EGFR-his were diluted to 2 μg/mL and 50 μL/well in a 96-well plate and incubated at 4° C. overnight. The plate was washed with 0.5×PBST, then incubated with 100 μL of a blocking buffer (PBS+3% BSA) at 37° C. for 2 h, and washed with 0.5×PBST. The 3F8 antibody was diluted with the blocking buffer in a 1:3 serial gradient, added at 50 μL/well, incubated at 37° C. for 40-50 min, and then washed with 0.5×PBST. Goat anti-mouse IgG-HRP (Southern Biotech, 1030-05) was diluted at 1:20000 with the blocking buffer, added at 50 μL/well, incubated in the dark for 30 min, and then washed with 0.5×PBST. Prior to assay, 50 μL of luminol buffer A+B was added to each well in a 1:1 mix.
Antibody stability test: the purified antibody at 5 mg/mL was stored at 4° C. as regular practice, incubated at 40° C. for 7 days and 14 days for heat stability evaluation, transferred to a glycine solution at pH 3.5 for regeneration, and stored for 2, 4 and 6 h for acid stability evaluation, or subjected to repeated freeze-thaw treatments for 4 or 6 cycles for freeze-thaw stability evaluation. Aggregation was measured by SEC-HPLC, and binding affinity was determined by ELISA.
Three clones of hu3F8 were freeze-thawed for 3 or 5 cycles, and then subjected to ELISA to measure the binding affinities. The chimeric antibody was subjected to parallel assay.

B1: Chimeric: murine-human chimeric 3F8 antibody with human IgG1 and Igκ constant regions (antibody, V domains shown)
VH: DVQLQESGPGLVKPSQSLSLTCSVTGYSITSAYYWNWIRQFPGDKLEWMGYISYDGRNNFNPSLKNRISITRDTSKNQFFLKLNSVTSGDTATYYCARDGDYDYFDYWGQGTTLTVSS
VL: DIQMTQTTSSLSASLGDRVTISCRASQDISNYLNWYQQKPDGTFKLLIYYTSILHSGVPSRFSGSGSGTDYSLTISNLEQEDIATYFCQQGDTLPPTFGAGTKLELK
B1 was tested, and the “ka” value (His-HER3) was 628000 M⁻¹ s⁻¹, the “kd” value (His-HER3) was 0.000391 s⁻¹ and the “EC50 after incubation at 40° C.” value (HER3 [1]) was 0.04737 µg/mL. The “EC50 after freeze-thaw stress” value (HER3 [2]) was 0.04706 µg/mL.

From patent US20250295802A1, “HER3 ANTIBODY-DRUG CONJUGATE AND USE THEREOF” (DUALITY BIOLOGICS (SUZHOU) CO., LTD., priority 2022, published 2025)
